Results on six substances are retold here after patent US20150183880A1.

Experiment [1] addresses EGP-1 expressed on cancer cell lines (MCF-7, DU-145, ME-180) (UniProt P09758). The experiment is described as follows: flow cytometry (FACScan), DU145 cells.
Experiment [2] shares this target. Nature of the experiment: flow cytometry (FACScan), MCF-7 cells.
Experiment [3] has the same target. Nature of the experiment: flow cytometry (FACScan), ME-180 cells.
Experiment [4] concerns the target recombinant human IGF-1R (R&D Systems, Catalog #391-GR), extracellular domain (human) (UniProt P08069). Nature of the experiment: rhIGF-1R-coated beads; competitor unlabeled R1.
Experiment [5] has the same target. The experiment is described as follows: rhIGF-1R-coated beads; competitor unlabeled 1-2.
Experiment [6] shares this target. Nature of the experiment: rhIGF-1R-coated beads; competitor unlabeled 1H7.
Experiment [7] shares this target. The experiment is described as follows: rhIGF-1R-coated beads; competitor unlabeled 2C8.
The target is the same in experiment [8]. Nature of the experiment: rhIGF-1R-coated beads; competitor unlabeled 3B7.
The target is the same in experiment [9]. The experiment is described as follows: rhIGF-1R-coated beads; competitor unlabeled cR1.
The target is the same in experiment [10]. The experiment is described as follows: rhIGF-1R-coated beads; competitor unlabeled hR1.
The target is the same in experiment [11]. Nature of the experiment: rhIGF-1R-coated beads; competitor unlabeled 17-69.
The target is the same in experiment [12]. Nature of the experiment: rhIGF-1R-coated beads; competitor unlabeled 24-31.
For experiment [13] the target is unchanged. The experiment is described as follows: rhIGF-1R-coated beads; competitor unlabeled 24-57.
Experiment [14] has the same target. Nature of the experiment: rhIGF-1R-coated beads; competitor unlabeled 24-60.
The target is the same in experiment [15]. The experiment is described as follows: rhIGF-1R-coated beads; competitor unlabeled αIR-3.
Experiment [16] has the same target. The experiment is described as follows: rhIGF-1R-coated beads; competitor unlabeled MAB391.
Experiment [17] deals with IGF-1R and EGP-1 together on cancer cell lines (MCF-7, DU-145, ME-180). Nature of the experiment: flow cytometry (FACScan), MCF-7 cells; control.
Experiment [18] shares this target. The experiment is described as follows: flow cytometry (FACScan), MCF-7 cells; structural control.
For experiment [19], the target named is IGF-1R expressed on cancer cell lines (MCF-7, MCF-7L, CaPan1, DU-145, ME-180, Hep G2, HT-29, LNCaP) (human) (UniProt P08069). The experiment is described as follows: 125I-IGF-1 binding to MCF-7L cells with antibody at 10 ng/mL.
The target is the same in experiment [20]. Nature of the experiment: 125I-IGF-1 binding to MCF-7L cells with antibody at 100 ng/mL.
For experiment [21] the target is unchanged. The experiment is described as follows: 125I-IGF-1 binding to MCF-7L cells with antibody at 1000 ng/mL.
The target is the same in experiment [22]. Nature of the experiment: 125I-IGF-1 binding to MCF-7L cells with antibody at 0 ng/mL (baseline).

EGP-1 expressed on cancer cell lines (MCF-7, DU-145, ME-180), sequence (P09758 27-323 limits assumed): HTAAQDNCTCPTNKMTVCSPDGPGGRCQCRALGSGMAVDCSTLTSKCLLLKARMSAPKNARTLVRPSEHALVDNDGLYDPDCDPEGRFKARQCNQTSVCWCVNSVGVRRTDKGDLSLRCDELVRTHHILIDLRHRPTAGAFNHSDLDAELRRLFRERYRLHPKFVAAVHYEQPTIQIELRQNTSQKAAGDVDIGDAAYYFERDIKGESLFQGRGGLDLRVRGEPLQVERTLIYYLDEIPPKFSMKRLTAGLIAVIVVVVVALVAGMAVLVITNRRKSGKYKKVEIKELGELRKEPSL

“Hex-hRS7 (monospecific hexavalent DNL construct of hRS7, anti-EGP-1)”: the values for the % Positive in [1], in [2] and in experiment [3] were 93.7%, 99.9% and 100%, respectively. The MFI in experiment [1] was 17; in [2], 35.7; in experiment [3], 59.6.

For the substance “24-60 (commercial anti-IGF-1R mAb) (antibody)”, the % binding in experiment [4] came to 0%; in experiment [5], 100%; in [6] it was 100%; in experiment [7], 88%; in [8], 79%; in [9], 0%. In addition, the % binding in experiment [10] worked out at 0%; in [11], 82%; in experiment [12], 18%; in experiment [13], 88%; in [14] it was 0%; in [15], 21%. Also, the % binding in experiment [16] stood at 0%.

For human IgG (control) (antibody), in [17], the % Positive came out at 2.34% and the MFI stood at 1.84.

In [18], “22-20 (bispecific hexavalent DNL construct: hLL2 IgG-AD2 with four hA20 Fab-DDD2) (bispecific antibody)” displayed a % Positive of 3.1% and an MFI of 2.11.

Regarding “αIR-3 (commercial anti-IGF-1R mAb) (antibody)”, the % binding in experiment [4] was found to be 86%; in [5], 95%; in [6], 115%; in experiment [7] it was 97%; in [8] it was 76%; in experiment [9], 97%. Besides, the % binding was found to be 107% in experiment [10]; 89% in experiment [11]; 52% in experiment [12]; 87% in experiment [13]; 0% in experiment [14]; 0% in experiment [15]. Moreover, the % binding in [16] was 0%.

Regarding “MAB391 (commercial mouse anti-IGF-1R monoclonal antibody, R&D clone 33255.111)”, the % binding in experiment [4] is 40%; in experiment [16] it was 0%. Further, the % binding of 125I-IGF-1 in [19] came to 95%; in experiment [20] it was 54%; in [21], 38%; in experiment [22] it was 100%.
